test: yeast display, Sf9 membrane polyspecificity reagent, FACS + sequencing; frameworks hold sequencing errors
Outline: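 Using colony PCR, genes from sorted yeast display clones were amplified, then sequenced on MiSeq at 2 × 250 and filtered by CDR length. The clones had been stained with 10% biotinylated, detergent-solubilized Sf9 membrane reagent for 1 hour at 4 °C and sorted by FACS into low and high (top ~1%) gates on anti-HA and streptavidin fluorescence. Polyreactivity labels come from the gate of origin.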

Row | Sequence | polyreactivity (PSR sort gate)
1 | QVQLVESGGGLVQAGGSLRLSCAASGGIFSPNAMGWYRQAPGKERELVAAISSNGGSTNYADSVKGRFTISRDNAKNTVYLQMNSLKPEDTAVYYCAGLQKRRSYWRPFYWGQGTQVTVSS | low polyreactivity
2 | QVQLVESGGGLVQAGGSLRLSCAASGRIIAVYAMGWYRQAPGKERELVATIRGGGSTNYADSVKGRFTISRDNAKNTVYLQMNSLKPEDTAVYYCAALGGRYRASTYGYWGQGTQVTVSS | high polyreactivity
3 | QVQLVESGGGLVQAGGSLRLSCAASGSIFSHYVMGWYRQAPGKERELVAAISRSGGTTYYADSVKGRFTISRDNAKNTVYLQMNSLKPEDTAVYYCNVRGEPYPYYDGYEYDYWGQGTQVTVSS | low polyreactivity
4 | QVQLVESGGGLVQAGGSLRLSCAASGRTLRLYVMGWYRQAPGKERELVAAISRSGGRTYYADSVKGRFTISRDNATNTVYLQMNSLKPEDTAVYYCAADSGRYGYDYWGQGTLVTVSS | high polyreactivity
5 | QVQLVESGGGLDQAGGSLRLSCAASGRISGYYDMVWYRQAPGKERELVATITSDGGTNYADSVKGRFTISRDNAKNTVYLQMNSLKPEDTAVYDCAAYGWYTKWHFAYGYWGQGTQVTVSS | low polyreactivity
6 | QVQLVESGGGLVQAGGSLRLSCAASGITFSRYAMGWYRQAPGKERELVAAITSSGGSTYYADSVKGRFTISRDNAKNTVYLQMNSLKPEDTAVYYCAATSYYTREQYYYWGQGTQVTVSS | high polyreactivity
7 | QVQLVESGGGLLQAGGSLRLSCAASGITFRRNTMGWYREAPGKVRELVATISWRGGNTFYADSVKGRCTISRDNAKNTVYLQMNSRKPEDTAVYYCAAYSPYITRPGYAPYGYWGQATQVTVSS | high polyreactivity
8 | QDQLVESGGGLVQAGGSLRLSCAASGSIFFTNDMGWYRQAHGKEREFVAAITGGGGSTYYADSVKGRFTISRDNAKNTVYLQMNSLKPEDTAVYYCATKAKPRSGYNYWGQGTQVTVSS | low polyreactivity
9 | QVQLVESGGGLVQAGGSLRLSCAASGSIFVYYVMGWYRQAPGKERELVAAISSGGRTYYADSVKGRFTISRDNAKNTVYLQMNSLKPEDTAVYYCAAVWYWTQDYDYWGQGTQVTVSS | low polyreactivity
10 | QVQLVESGGGLVQAGGSLRLSCAASGSIFSDNAMGWYRQAPGKERELVAAITWSGGSTYYADSVKGRFTISRDNAKNTVYLQMNSLKPEDTAVYYCAADGDYYWYYHGTYDYWGQGTQVTVSS | low polyreactivity
11 | QVQLVESGGGLVQAGGSLRLSSAASGRIFDDNAMGWYRQAPGKERELVAAITGPDDSTDYADSVKGRFTISRDNAKNTVYLQMNSLKPEDTAVYYCAKDAGYWYYWNGYWGQGTQVTVSS | high polyreactivity
12 | QDQLVESGAGLVQAGGSLRLSCAASGFNFYRYAMGWYREAPGKERELVATISVRGGTYYADSVKGRFTISRDNAKNTVYLQMNSLKPEDTAVYYCAARVHLWGDTLKFVRVGYWGQGTQVTVSS | low polyreactivity
13 | QVQLVESGGGLVQAGGSLRLSCAASVYTFSKNTMGWYRQAPGKEREFVAAINWSGGSTYYADSVKGRFTISRDNAKNTVYLQMNSLKPEDTAVYYFAARRGGRRGYDYWGQGTQVTVSS | high polyreactivity
14 | QVQLVESGGGLVQAGGSLRLSCAASGRISGRNAMGWYRQAPGKERELVAVITRGDTNYADSVKGRFTISRDNAKNTVYLQMNSLKPEDTAVYYCAKEPLASGWGYDYWGQGTQVTVSS | high polyreactivity
15 | QVQLVESGGGLVQAGGSLRLSCAASGITYTSYAMGWYRQAPGKERELVAAISSSGGSTYYADSVKGRFTISRDNAKNTVYLQMNSLKPEDTAVYYCIARPRSRSPRVEYDYWGQGTQVTVSS | high polyreactivity
16 | QVQLVESGGGLVQAGGSLRLSCAASGSTFWWYAMGWYRQAPGKERELVATISWSTGSTYYADSVKGRFTISRDNAKNTVYLQMNSLKPEDTAVYYCNARIFYLFPGNSWSSSDYDYWGQGTQVTVSS | low polyreactivity
17 | QFQLVESGGGLVQAGGSLRLSCAASGFTFEANAMGWYRKAPGKERELVASITRSDGSTHYADSVKGRFTISRDNAKNTVYLLMNRLKPEDTAVYYCAAVPESLTPKKGYGYWGKGTQVTVSS | low polyreactivity
18 | QVQLVESGGGLVQAGGSLRFSCAASGFTFVINDMGWYRQAPGKERELVADITSGGDTYYADSVKGRFTISRDNAKNTVYLQMNSLKPEDTAVYYCAADIYPDWIYLLYGYWGQGTQVTVSS | low polyreactivity
19 | QVQLVESGGGLVQAGGSLRLSSAASGSIFGANAIGWYRQAPGKERELVAAISRRGRSTYYADSVKGRFTISRDNAKYTVYLQLNSLKPEDTAVYYSAAKRPQYYVQYGYWGQGTQVTVSS | high polyreactivity
20 | QDQLVESGGGLVQAGGSLRLSCAASGSIFGGYGMGWYRQAPGKERELVAAITSGSSTYYADSVKGRFTISRDNAKNTVYLQMNSLKPEDTAVYYCAARPYPHSAYQGDYWGRGTQVTVSS | low polyreactivity
21 | QVQHVESGGGLVQAGGSLRLSCAASGLIFYYYDMGWYRQPPGKERELVAAISYNGGTTYYSDSVKGRFTISRDNAKNTVYLQMNSLKPEDTAVYYCASEQLVSGYDYWGQGTQVTVSS | low polyreactivity

Row | Sequence | polyreactivity (PSR sort gate)
22 | QVQHVESGGGLVQAGGSLRLSCAASGSTFDSNDMGWYRQAPGKEWELVPGITWSGASTYYADSVKGRFTISRDNAKNTVYLQMNSLKPEDTAVYYCAAGPWGTGHYVQGPVYYYRYDYWGQGTQVTVSS | low polyreactivity
23 | QVQLVETGGGLVQAGGSLRLSCASSGRTCVDNTMGWYRQEPGKESELVATITSGDSTNYEESVKGRFTISRDNAKYTVYLQMNSLKPEDTAVYYCAAVTNWYYYYTHRMEYWGQGTQVTVSS | low polyreactivity
24 | QVQLVESGGGLVQAGGRLRLSCAASGRTFNYYAMGWYRQAPGKERELVATISYNGASTYYADSVKGRFTISRDNAKNTVYLQMNSLKPEDTAVYYCAAGYLWRGRLGNWGQGTQVTVSS | high polyreactivity
25 | QVQLVESGGGLVQAGGSLRLTCAASGRTFKFNAMGWDRQAPGKERELVAGITWTGSTTSYADSVKGRFTISRDNAKNTVYLQMNSLKPEDTSVYYCAADKIRFWYHGFYYRGQGTQVTVSS | low polyreactivity
26 | QVQLVESGGGLVQAGGSLRLSCAASGSIFSPYAMGWYRQAPGKERELVAAISWTGGRTYYADSVKGRFTISRDNAKNTVYLQMNSLKPEDTAVYYGAAAYYGTRPYGYWGQGTQVTVSS | high polyreactivity
27 | QVQLVESGGGLVQAGGSLRLSCAASGRTFGVYAMGWYRQAPGKERELVAAITGRGGSTYYADSVKGRFTISRDNAKNTVYLQMNSLKAEDTALYYCNAELYEYQSWDDYWGQGTQVTVSS | low polyreactivity
28 | QVQLVESGVGLVQARGSLRLSCAASGVISSINAVGWNRLAAAKEWELVAGIRARGTSPYYADSVKGRFTISRDNAKNTVYLQMNCLKPEDTAVYDCAADVDAGRHYGYWGQGTQVTVSS | low polyreactivity
29 | QVQLVESGGGLVQAGGSLRLSCAASGLTFVPNAMGWYRQAPGKERELVAAISNNGGRTYYADSVKGRFTISRDNAKNNVYLQMNSLKPEDTAVYYCAKYLSPGERHSYDYWGQGTQVTLSS | high polyreactivity
30 | QVQLVESGGGLVQAGGSLRLSCAASGSISYINAMGWYRQAPGKERELVARIRSGDRTNYADSVKGRFTISRDNAKNTVYLQMNSLKPEDTAVYYCAARGLRTGGYWGQGTQVTVSS | high polyreactivity
31 | QVQLVESGGGLVQAGGSLRLSCAASGRTYRSYTMGWYRQAPGKERELVASISRRGGSTYYADSVKGRFTISRDNAKNTVYLQMNSLKPEDTAVYYCAAVNVYDAYEYWGQGTQVTVSS | high polyreactivity
32 | QVQLVESGGGLVQAGGSLRLSCAASGSIFSWYAMGWYRQAPGKEWELVAAITWSGGSTYYADSVKGRFTISRDNAKKTVYLQMNSLKPEDTAVYYCAASYDIYGNYRRYDYWGQGTQVTVSS | high polyreactivity
33 | QVHLVESAGGLVQAGGSLSLSCHASGSTFVWNAMGWYRQAPGKEMELVATMTLSTGSTYYADSVKGRFTISRDNAKNTVYLQMNSLKPEDTAVYYCNTEIFVDIIYDYGLWGQGTQVTVSS | low polyreactivity
34 | QVQLVESGGCLVQAGGSLRLSGAASGRIFGRNAMGWYRQAPGKERELVAAINSGVSTYYADSVKGRFTIARDNAKNTVYLQMNSLKPEDTAVYYSATDTDYYLLYLYYYWGQGTQVTVSS | low polyreactivity
35 | QVQLVESGGGLVQAGGSLRLSCAASGFTFYEYAMGWYRQAPGKERELVAAINRRGGRTYYADSVKGRFTISRDNAKNTVYLQMNSLKPEDTAVYYCNTPVSDGGHYYSWGQGTQVTVSS | high polyreactivity
36 | QVQLEESGGGLVQAGGSLRLSCAASGSIFYYNAMGWYRQAPGTERELVAAIRRSGGRTYYADSVKGRFTISRDNAKNSVYLQMNSLKPEDTAVYYCAAVHYDRVTCQVDNDYWGQGTQVTVSS | high polyreactivity
37 | QVQLVESGGGLVQAGGSLRLSCAASGSTFPEYAMGWYRQAPGKERELVAAISKRGGRTYYADSVKGRFTISRDNAKNTVYLQMNSLKPEETAVYYCARDSYPHGRARFDYWGQGTQVTVSS | high polyreactivity
38 | QVQLEESGGGLVQAGGSLRLSCAASGSMFTRYAKGWYRQAPWKERELVAAISTSGGSTYYADSVKGRFTISRDNAKNTVYLQMTSLKPEDTAVYYCAADDQRRSGYYSWGQGTQVTVSS | high polyreactivity
39 | QVQLVESGGGLVQAGGSLRLSCAASGSISYKYVMGWYRQAPGKEREFVASITRIGGSTYYADSVKGRFTISRDNAKNTVYLQMNSLKPEDTAVYYCARDYDYWSWPSAYDYWGQGTQVTVSS | low polyreactivity
40 | QVQLVESGGGLVQAGGSLRLSCAASGRIFTQYTMGWYRQAPGKERELVAAISRGGGSTYYADSVKGRFTISRDNAKNTVYLQMNSLKPEDTAVYYCAAIRREVVAGDYWGQGTQVTVSS | high polyreactivity
41 | QVQLVESGGGLVQAGGSLRLSCAASGYTIIVNAMGWYRQAPGKERELVAAISWSSVSTYYADSVKGRFTISRDNAKNTVYLQMNSLKPEDTAVYYCAAEGYDYSQWFDYWGQGTQVTASS | high polyreactivity

Source: the nanobody polyreactivity screen of Harvey et al. (2022)
